Data on 72 sequences can be found in the supplement of paper PMC10567573.

± gives the standard deviation.

The nature of this data set: protein stability index of a GFP-peptide fusion (GPS, HEK-293T) (PSI 1-6); higher = more stable.
[1] abbreviates: treatment: DMSO, c terminus: a fixed tail appended.
Setting [2] is: treatment: MLN4924 1 uM, 8 h, c terminus: a fixed tail appended.
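Also: 24-mer peptide tiles fused after GFP, lentivirally expressed, FACS-sorted into six equal bins by GFP/DsRed ratio, decoded by Illumina sequencing, PSI is the read-weighted mean bin number.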

On to HAFQKELTCVICLNYLVDPVTICC [TRIM43], for which the protein stability index turned out to be 3.04 ± 0.33 under setting [1] and 2.95 ± 0.4 under setting [2].

For the sequence HCKEKRKTSLLDQLTNTSGTVIGV [NETO1], the protein stability index reads like this: under setting [1], 3.37 ± 0.24; under setting [2], 3.34 ± 0.31.

For HCMLVSNRVSWWGSTLAMLQRLKE [ZBED1], the protein stability index is, setting by setting: under setting [1], 3.29 ± 0.18; under setting [2], 3.46 ± 0.37.

HEEVVEKVKKSGSRVMFLLVDKET [PDZK1]: the protein stability index turned out to be 3.97 ± 0.17 under setting [1] and 4.25 ± 0.23 under setting [2].

Consider HFMVLSKSGPGDGFFSSAFQARLS [POMT2], for which the protein stability index runs as follows: under setting [1], 2.19 ± 0.11; under setting [2], 2.06 ± 0.18.

Consider HFPYDLHLRSQSLTMQDELNAVFH [NEUROD6], for which the protein stability index runs as follows: under setting [1], 2.81 ± 0.19; under setting [2], 2.92 ± 0.27.

HGAHINLQSLKFQGGHGPAATLLR [RIPK4]: the protein stability index reads like this: under setting [1], 2.65 ± 0.36; under setting [2], 3 ± 0.047.

Turning to HGQAGQRQDPRPHGPQLPTGIEGN [ZBED2], the protein stability index reads like this: under setting [1], 4.91 ± 0.13; under setting [2], 5.11 ± 0.15.

Take HGQEGSILVTKVEEPSKYGVVVCE [GMPPB]: the protein stability index reads like this: under setting [1], 3.9 ± 0.13; under setting [2], 3.94 ± 0.25.

For the sequence HILASAPTDRNLCHFQALGCRTTH [PYCR3], the protein stability index by setting is: under setting [1], 2.19 ± 0.45; under setting [2], 2.23 ± 0.15.

Turning to HLVQHQHPNSRKSSAGGAKAGQPE [ZNF8], the protein stability index reads like this: under setting [1], 4.8 ± 0.18; under setting [2], 4.79 ± 0.16.

With HMEGLIVRERILGADNIDVSHPII [FEM1B], the protein stability index runs as follows: under setting [1], 3.25 ± 0.23; under setting [2], 2.95 ± 0.28.

Regarding HMTRHLEESEKAMQERVQRLEAAR [LRRC45], the protein stability index is, setting by setting: under setting [1], 5.15 ± 0.06; under setting [2], 5.06 ± 0.19.

For HPWKWSNGKEFNNWFNVTGSDKCV [CD69], the protein stability index amounted to 2.58 ± 0.53 under setting [1] and 2.46 ± 0.17 under setting [2].

Regarding HQRIHTGEKPYECVQCGKSYSQSS [ZNF24], the protein stability index reads like this: under setting [1], 3.79 ± 0.4; under setting [2], 3.92 ± 0.28.

Regarding HSGDLGQLDGLGFLYVTGHIKEIL [ACSBG2], the protein stability index under setting [1] was 2.09 ± 0.17 and the protein stability index under setting [2] was 2.19 ± 0.32.

Turning to HSKLLVSGFWGVARHFNYVGDLMG [DHCR7], the protein stability index by setting is: under setting [1], 2.34 ± 0.53; under setting [2], 2.33 ± 0.44.

In turn, HTGERPFQCNQCGASFTQKGNLLR [IKZF1] yielded a protein stability index under setting [1] of 2.21 ± 0.29 and a protein stability index under setting [2] of 2.79 ± 0.52.

As for HTKPSQAPAVEVAPAGASYNPSFE [NOP53], the protein stability index is, setting by setting: under setting [1], 4.86 ± 0.36; under setting [2], 4.95 ± 0.19.

As for HVLLPVALEFQPQLVLVAAGFDAL [HDAC6], the protein stability index under setting [1] stood at 3.25 ± 0.43 and the protein stability index under setting [2] is 2.78 ± 0.43.

For the sequence IAQAEEQARKRQEEREKEAAEQAE [SMARCE1], the protein stability index reads like this: under setting [1], 5.24 ± 0.12; under setting [2], 5.892 ± 0.034.

IAQDTCTTTDHSSNPGPVPGSSSG [SPAG8]: the protein stability index reads like this: under setting [1], 5.23 ± 0.44; under setting [2], 5.26 ± 0.23.

As for IASSDSEVEIVGVQEHARCVHPRG [C18orf25], the protein stability index by setting is: under setting [1], 4.49 ± 0.37; under setting [2], 4.6 ± 0.1.

As to ICAIEYLHSKEIVYRDLKPENILL [PRKX], the protein stability index reads like this: under setting [1], 2.61 ± 0.39; under setting [2], 2.96 ± 0.94.

Take IDASQLPHRVLETRGHAISILFGF [SMIM2]: the protein stability index under setting [1] was 2.68 ± 0.54 and the protein stability index under setting [2] stood at 2.51 ± 0.54.

Consider IDGDGDDMERFMEEMRELRRKIRE [BEX5], for which the protein stability index was 3.26 ± 0.24 under setting [1] and 3.71 ± 0.34 under setting [2].

In turn, IEEACYAQTIPTKDRLEGLLAFKE [AUH] gave a protein stability index under setting [1] of 3.73 ± 0.46 and a protein stability index under setting [2] of 3.55 ± 0.69.

Sequence IERQWGNLLGEGQHKCDECGKSFT [ZSCAN9] returned a protein stability index under setting [1] of 3.79 ± 0.34 and a protein stability index under setting [2] of 3.55 ± 0.22.

For the sequence IETYGPHVPELEMLGRLGYLNHVR [MNAT1], the protein stability index by setting is: under setting [1], 2.4 ± 0.1; under setting [2], 2.62 ± 0.19.

As to IGLDNGTISEFILSEDYNKMTPVK [WDFY2], the protein stability index runs as follows: under setting [1], 2.98 ± 0.47; under setting [2], 3.16 ± 0.54.

As for IHCENCKTTLGWKYEQAFESSQKY [YPEL3], the protein stability index by setting is: under setting [1], 2.36 ± 0.38; under setting [2], 2.62 ± 0.62.

With IHSPAHPEIEKADDHLQQPLQNQK [ZNF649], the protein stability index runs as follows: under setting [1], 5.39 ± 0.16; under setting [2], 5.35 ± 0.37.

For the sequence IIYMAILLTHRCLRDEHRCASKYG [DHCR7], the protein stability index by setting is: under setting [1], 2.83 ± 0.75; under setting [2], 2.75 ± 0.81.

As to ILWDTLLRLCAWGLASWPLARGIH [POMT2], the protein stability index under setting [1] was 2.823 ± 0.003 and the protein stability index under setting [2] was found to be 3.27 ± 1.2.

On to INLEEKEKQIRSFLIEGPLINTIR [PLEKHN1], for which the protein stability index was found to be 2.5 ± 0.13 under setting [1] and 2.67 ± 0.31 under setting [2].

In the case of INVNDLSFVTGSHVGELIIWDALD [WDR41], the protein stability index amounted to 2.22 ± 0.41 under setting [1] and 2.12 ± 0.2 under setting [2].

With IPIHGKGNFPTMEVKPKDIIHVVK [TENT5D], the protein stability index stood at 2.86 ± 0.24 under setting [1] and 2.93 ± 0.2 under setting [2].

On to IQEQPGQEQVAGGEAQPGLPQEDP [FEM1A], for which the protein stability index is, setting by setting: under setting [1], 5.58 ± 0.16; under setting [2], 5.57 ± 0.16.

For the sequence IRKKLKDSGDVSNVIEKVKCILKT [RHOBTB3], the protein stability index by setting is: under setting [1], 3.1 ± 0.51; under setting [2], 2.72 ± 0.94.

ISGVTKAISSPTVSRLTDTTKFTG [TPPP] gave a protein stability index under setting [1] of 3.89 ± 0.27 and a protein stability index under setting [2] of 3.85 ± 0.17.

As for ISRLEQCGINANDVKKLEEAGFHT [RAD51], the protein stability index by setting is: under setting [1], 3.58 ± 0.15; under setting [2], 3.9 ± 0.11.

ISSMADFWDFAQGPLLDSLYWTKW [PKD2L1]: the protein stability index is 2.85 ± 1.3 under setting [1] and 2.53 ± 1.6 under setting [2].

ITTPIIDTFKVPKEMFTVGCCVFA [SLC6A17] displayed a protein stability index under setting [1] of 2.67 ± 0.59 and a protein stability index under setting [2] of 2.86 ± 0.55.

For IVIFCLETLPELKDDKDFTGTVHR [KCNA1], the protein stability index amounted to 2.42 ± 0.46 under setting [1] and 2.16 ± 0.27 under setting [2].

Consider IVIQTYYRQWHAKIFVENLRRQKS [IQUB], for which the protein stability index by setting is: under setting [1], 2.453 ± 0.011; under setting [2], 3.12 ± 0.52.

With IWVPIKIGALTYFAQADALKGTLV [ACSBG2], the protein stability index worked out at 2.76 ± 0.71 under setting [1] and 3.08 ± 0.67 under setting [2].

As for IYTNRYETNEEDKTLQEIYRKYRK [FBXO39], the protein stability index is, setting by setting: under setting [1], 2.96 ± 0.32; under setting [2], 3.58 ± 0.61.

For KALNTFIDDLFAFVIKMPVMYRIG [CLPTM1], the protein stability index came to 3.02 ± 0.53 under setting [1] and 2.82 ± 0.5 under setting [2].

For the sequence KDEWHKVFDLPESLGGIRACTLTV [KLHL13], the protein stability index under setting [1] was 2.89 ± 0.63 and the protein stability index under setting [2] came to 2.89 ± 0.83.

KDLTEYLKVRSHDPEEAIRHDVIV [PDS5B]: the protein stability index reads like this: under setting [1], 3.26 ± 0.38; under setting [2], 3.39 ± 0.14.

Regarding KEAQYIRTELVEQAFRAIDRADYY [PCMTD2], the protein stability index amounted to 2.71 ± 0.27 under setting [1] and 2.88 ± 0.36 under setting [2].

For the sequence KEGEGEVGGEAVEVEEVENVQTEF [TRIM55], the protein stability index was determined as 5.716 ± 0.023 under setting [1] and 5.59 ± 0.37 under setting [2].

As for KEHYLTFEKSRYETYIHLLAMKIK [PSD2], the protein stability index was determined as 3.28 ± 0.76 under setting [1] and 2.73 ± 0.94 under setting [2].

For the sequence KEQILEFLVLEQFLTILPEELQSW [ZNF232], the protein stability index amounted to 3.21 ± 0.27 under setting [1] and 2.85 ± 0.62 under setting [2].

KEQSKELQMKLEKLREKERKKEAK [FAM50A]: the protein stability index runs as follows: under setting [1], 5.02 ± 0.54; under setting [2], 5.55 ± 0.16.

For KEQVLRKGTENLQRAQAEVLQSVR [FCHSD1], the protein stability index runs as follows: under setting [1], 4.5 ± 0.096; under setting [2], 4.56 ± 0.27.

As for KETVNVKTVCGYYTSAGTYGLDSV [GMCL1], the protein stability index is 2.48 ± 0.29 under setting [1] and 2.68 ± 0.3 under setting [2].

For the sequence KGLSGGFGSRSLYSLGGVRSLNVA [KRT71], the protein stability index runs as follows: under setting [1], 2.58 ± 0.26; under setting [2], 2.41 ± 0.39.

For the sequence KHLLNLGVEIDEINVYGNTALHIA [ANKRD44], the protein stability index by setting is: under setting [1], 2.19 ± 0.34; under setting [2], 2.07 ± 0.48.

KHWREWGSHAQTSQIQSIRRIQQ [CRYBA1]: the protein stability index reads like this: (treatment: DMSO, c terminus: native) 3.25 ± 0.69; (treatment: MLN4924 1 uM, 8 h, c terminus: native) 3.19 ± 0.46.

With KINVNEIFYDLVRQINRKTPVPGK [RAP1B], the protein stability index came to 2.44 ± 0.4 under setting [1] and 2.25 ± 0.26 under setting [2].

KKDTGHIYAMKILRKSDMLEKEQV [STK38L]: the protein stability index runs as follows: under setting [1], 3.36 ± 0.39; under setting [2], 3.54 ± 0.21.

Regarding KKKRPPQPPEESQPPQSQAQVPPA [PLK2], the protein stability index worked out at 5.35 ± 0.23 under setting [1] and 5.46 ± 0.14 under setting [2].

Regarding KKRYEEEINKRTAAENEFVLLKKD [KRT71], the protein stability index reads like this: under setting [1], 5.07 ± 0.2; under setting [2], 4.99 ± 0.27.

On to KLEAEKRILQEKLDQPVSAPPSPR [CCDC6], for which the protein stability index runs as follows: under setting [1], 5.24 ± 0.26; under setting [2], 5.21 ± 0.37.

With KLFFVDTGSKEKGLTKKRTKVQKK [NOP53], the protein stability index is 3.26 ± 0.13 under setting [1] and 3.83 ± 0.54 under setting [2].

Consider KLFSTYLRPPHTSRGTSQTPNASS [LPCAT4], for which the protein stability index is, setting by setting: under setting [1], 3.17 ± 0.19; under setting [2], 3.08 ± 0.32.

KLPNDSRVERRFHFSQSLTVIHDF [FAF2] yielded a protein stability index under setting [1] of 2.17 ± 0.19 and a protein stability index under setting [2] of 2.26 ± 0.44.

Consider KLVKVCNGHDCWSLISLSNNTGKN [TENT5D], for which the protein stability index is, setting by setting: under setting [1], 2.33 ± 0.24; under setting [2], 2.34 ± 0.43.

For KMAAVSKASGRFGLLQGTSAETSG [SEPHS2], the protein stability index was 3.94 ± 0.15 under setting [1] and 3.88 ± 0.25 under setting [2].

For KMNLYESFAQATQLGDLHTCLMMD [INTS3], the protein stability index under setting [1] was 2.5 ± 0.2 and the protein stability index under setting [2] is 2.58 ± 0.37.

For the sequence KMSLYSEADSGYGSYGGFASAPTT [TRIM9], the protein stability index by setting is: under setting [1], 3.15 ± 0.36; under setting [2], 3.18 ± 0.12.
